In the assay the target is T1, ApoER2 (Mus musculus, UniProt Q924X6).
T1 construct: FLAG; expressed in transfected cells; host or cells: RAW264.7
T1 sequence (Q924X6 29-996): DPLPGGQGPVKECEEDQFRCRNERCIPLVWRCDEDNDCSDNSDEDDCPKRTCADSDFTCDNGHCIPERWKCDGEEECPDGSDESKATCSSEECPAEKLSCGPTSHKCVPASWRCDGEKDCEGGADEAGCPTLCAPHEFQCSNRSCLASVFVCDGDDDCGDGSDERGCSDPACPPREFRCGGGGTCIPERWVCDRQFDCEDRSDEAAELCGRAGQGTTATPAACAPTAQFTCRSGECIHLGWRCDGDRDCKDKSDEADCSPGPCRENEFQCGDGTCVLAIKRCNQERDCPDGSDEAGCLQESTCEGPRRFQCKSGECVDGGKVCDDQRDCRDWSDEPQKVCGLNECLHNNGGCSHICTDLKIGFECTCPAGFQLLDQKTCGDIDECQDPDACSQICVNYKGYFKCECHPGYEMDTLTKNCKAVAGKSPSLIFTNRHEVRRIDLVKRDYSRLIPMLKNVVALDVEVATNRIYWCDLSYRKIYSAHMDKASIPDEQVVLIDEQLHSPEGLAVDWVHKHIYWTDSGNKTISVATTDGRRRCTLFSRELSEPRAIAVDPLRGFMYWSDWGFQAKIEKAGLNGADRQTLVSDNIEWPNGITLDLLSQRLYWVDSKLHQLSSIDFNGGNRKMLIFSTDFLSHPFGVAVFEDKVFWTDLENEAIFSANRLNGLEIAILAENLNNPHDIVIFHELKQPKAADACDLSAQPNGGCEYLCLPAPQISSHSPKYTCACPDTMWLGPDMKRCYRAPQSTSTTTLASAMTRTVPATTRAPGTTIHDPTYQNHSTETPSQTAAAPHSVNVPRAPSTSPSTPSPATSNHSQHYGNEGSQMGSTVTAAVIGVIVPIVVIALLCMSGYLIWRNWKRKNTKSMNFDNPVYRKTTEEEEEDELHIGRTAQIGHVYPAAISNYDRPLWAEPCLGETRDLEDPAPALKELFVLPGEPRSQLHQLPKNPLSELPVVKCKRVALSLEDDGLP
Description: Pull‐down assay of ApoER2 by His‐tagged full‐length/truncated/mutated sclerostin in macrophages (RAW264.7). In kind it is binding. To be noted: RAW264.7 lysate, Ni‐NTA beads, western blot; Figure 6A, S6A. Here is the method: The interaction of full‐length (FL)/truncated ApoER2 with full‐length (FL) /truncated sclerostin in macrophages (RAW264.7) were determined by pull‐down assay and Co‐IP assay. The binding affinity of ApoER2 to FL sclerostin and sclerostin loop2 were determined by biolayer interferometry (BLI) analysis. Moreover, the binding of sclerostin to ApoER2 on macrophages (RAW264.7) was examined by confocal microscopy.
The interaction residues within ApoER2 to sclerostin loop2 were determined in combination with pull‐down assay and BLI analysis. Based on the interaction residues within ApoER2 to sclerostin loop2, a series of Lrp8 mutations were developed. Based on the interaction residues within sclerostin loop2 to ApoER2, a series of sost mutations were developed.
Cell lysates were collected using RIPA Lysis and Extraction Buffer (Thermo Scientific, 89 901) supplemented with Protease Inhibitor Cocktail (CST, 5871) and centrifuged at 4000 rpm for 30 min at 4 °C, and replaced with binding buffer (PBS buffer, 20 mM imidazole, pH 8.0). […]
The eluted liquid from pull‐down assay was then mixed with SDS‐PAGE loading buffer and boiled for 10 min at 95 °C to make samples. […] The ECL solution (BIO‐RAD, 1 705 061) was used to visualize detected proteins. […]
On the technique in general: Immunoblotting shows a protein as a band on a membrane.

As to “sclerostin: recombinant human/mouse full‐length sclerostin protein”, the “Pull‐down of FLAG‐ApoER2 by the His‐tagged protein/peptide” value is reported as “pulled”.

(Values after article PMC12884772, “Macrophagic Sclerostin Loop2‐ApoER2 Interaction Required by Sclerostin for Cardiovascular Protective Action” (Advanced Science, 2025).)
